# Residue numbers refer to the chain shown, from its start. No end group written: not given here.
# T1: hOPN5-BSA (also: conjugated to BSA, coupling site not given here)
# T1 construct: RGD-containing synthetic peptide coupled to the carrier BSA and coated on ELISA or adhesion plates
# T1 peptide: CVDTYDGRGDSVVYGLRS
# B1: Hu33E10-VH1/VL6 IgG1/κ antibody (antibody, V domains shown)
# VH: EVQLVESGGGLVQPGGSLRLSCAASGFTFTDYYMIWVRQAPGKGLEWLGFIRNKANGYTTEYSASVKGRFTISRDNAKNSLYLQMNSLRAEDTAVYYCARGAYWGQGTMVTVSS
# VL: DIVMTQSPLSLPVTPGEPASISCRSSQSIVHSNGNTYLEWYLQKPGQSPQLLIYRVSNRFSGVPDRFSGSGSGTDFTLKISRVEAEDVGVYYCFQGSFVPWTFGQGTKVEIK
# notes: Human IgG1/κ form; also called product of NS0-Hu33E10-2 #22
# B2: Ch33E10 (chimeric 33E10 IgG1/κ antibody) (antibody, V domains shown)
# VH: EVKLVESGGGLVQPGGSLSLSCAASGFTFTDYYMIWVRQPPGKALEWLGFIRNKANGYTTEYSASVKGRFTISRDNSQSILYLQMNALRAEDSATYYCARGAYWGQGTLVTVSA
# VL: DVLMTQTPLSLPVSLGDQASISCRSSQSIVHSNGNTYLEWYLQKPGQSPKLLIYRVSNRFSGVPDRFSGSGSGTDFTLKISRVEAEDLGVYYCFQGSFVPWTFGGGTKLEIK
# notes: also called product of NS0-Ch33E10 2C11 (L4-2C11)
# B3: Hu33E10-VH7.8/VL6 IgG1/κ antibody (antibody, V domains shown)
# VH: B1 VH with A77S, N79S, S80I
# VL: DIVMTQSPLSLPVTPGEPASISCRSSQSIVHSNGNTYLEWYLQKPGQSPQLLIYRVSNRFSGVPDRFSGSGSGTDFTLKISRVEAEDVGVYYCFQGSFVPWTFGQGTKVEIKR
# notes: also called EJ3-1-1; product of NS0-Hu33E10-5 1E5 (EJ3-3 1E5)
# B4: Hu33E10-VH7/VLv2 IgG1/κ antibody (antibody, V domains shown)
# VH: B1 VH with N79S, S80I
# VL: DIVMTQSPDSLAVSLGERATISCRSSQSIVHSNGNTYLEWYLQKPGQPPKLLIYRVSNRFSGVPDRFSGSGSGTDFTLTISSLQAEDVAVYYCFQGSFVPWTFGQGTKVEIKR
# notes: also called SP2-1; SP-2
# Legend:
# [1] = molecular target: T1, hOPN5-BSA; assay: ELISA, hOPN5-BSA coated on the plate
# Description: (§1) Binding of Ch33E10 and Hu33E10-VH1/VL6 IgG1/κ antibodies to hOPN5-BSA was examined by ELISA. As an antigen, synthetic oligopeptide ([…] provided by Gene Techno Science) conjugated to bovine serum albumin (hOPN5-BSA) was used. In a typical experiment, an ELISA plate was coated with 100 μl/well of 1 μg/ml hOPN5-BSA in 0.2 M Na₂CO₃ buffer (pH 9.4) overnight at 4° C., washed with Wash Buffer, and blocked with 300 μl/well of Blocking Buffer for 1 hr at room temperature. After washing with Wash Buffer, samples appropriately diluted in ELISA Buffer were applied at 100 μl/well in the ELISA plate. After incubating the ELISA plate overnight at 4° C. and washing with Wash Buffer, bound antibodies were detected using 100 μl/well of 1/2,000-diluted HRP-conjugated goat anti-human γ chain polyclonal antibody (SouthernBiotech). After incubating for 1 hr at room temperature and washing with Wash Buffer, color development was performed by adding 100 μl/well of ABTS substrate and stopped with 100 μl/well of 2% oxalic acid. Absorbance was read at 405 nm.
# Binding of Hu33E10-VH5/VL6, Hu33E10-VH7/VL6 and Hu33E10-VH7.8/VL6 antibodies to hOPN5-BSA was compared to that of Ch33E10 by ELISA as described in Section 5. […] In repeated experiments, Hu33E10-VH7/VL6 and Hu33E10-VH7.8/VL6 behaved similarly to each other for binding to hOPN5-BSA.
# [2] = molecular target: T1, hOPN5-BSA; assay: ELISA, hOPN5-BSA coated on the plate (conclusion)
# [3] = molecular target: T1, hOPN5-BSA; assay: ELISA, hOPN5-BSA coated on the plate, two independent experiments
# Description: FIGS. 21A & 21B show ELISA analysis of the binding of Ch33E10 and Hu33E10-VH7/VLv2 IgG1/κ antibodies to hOPN5-BSA. Purified Ch33E10 and Hu33E10-VH7/VLv2 antibodies were tested at various concentrations, starting at 200 μg/ml (FIG. 21A) or 100 μg/ml (FIG. 21B) and serial 2-fold dilutions, for binding to hOPN5-BSA. The results of two independent experiments in duplicate (FIGS. 21A & 21B) are shown.
# as §1, with “After incubating for 1 hr at room temperature and washing with Wash Buffer, color development was performed by adding 100 μl/well of ABTS substrate and stopped with 100 μl/well of 2% oxalic acid.” left out, “nm. […]” for “nm.”
binder,measurement,setting,value
B1,fold weaker binding than Ch33E10,[1],~100 fold
B2,binding result,[1],binds
B3,fold lower affinity than Ch33E10,[1],~3 fold
B4,fold difference of affinity from Ch33E10,[2],≤ 3 fold
same,fold difference of binding affinity from Ch33E10,[3],≤ 2 fold
